From US20140241984A1 (UNITED ARAB EMIRATES UNIVERSITY, published 2014)

T1: IAPP monomers (UniProt P10997 34-70)
T1 peptide (looked up): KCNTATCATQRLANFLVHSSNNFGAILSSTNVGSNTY

T2: fibrils of NAC (61-78) (human)
T2 construct: also called NAC (61-78) (F)
T2 peptide: EQVTNVGGAVVTGVTAVA

T3: IAPP fibrils (UniProt P10997 34-70)
T3 construct: Amyloid fibrils of IAPP spotted in the dot blot; also called islet amyloid polypeptide
T3 peptide (looked up): T1 peptide (looked up)

T4: α-synuclein peptide 12 (78-91) (human)
T4 construct: also called Peptide No. 12
T4 peptide: AQKTVEGAGSIAAA

T5: α-synuclein peptide 18 (120-133) (human)
T5 construct: also called Peptide No. 18
T5 peptide: PDNEAYEMPSEEGY

T6: α-synuclein peptide 11 (71-84) (human)
T6 construct: also called Peptide No. 11
T6 peptide: VTGVTAVAQKTVEG

T7: α-synuclein peptide 8 (50-63) (human)
T7 construct: also called Peptide No. 8
T7 peptide: HGVATVAEKTKEQV

T8: α-synuclein peptide 13 (85-98) (human)
T8 construct: also called Peptide No. 13
T8 peptide: AGSIAAATGFVKKD

T9: α-synuclein peptide 7 (43-56) (human)
T9 construct: also called Peptide No. 7
T9 peptide: KTKEGVVHGVATVA

T10: α-synuclein peptide 3 (15-28) (human)
T10 construct: also called Peptide No. 3
T10 peptide: VVAAAEKTKQGVAE

T11: α-synuclein peptide 14 (92-105) (human)
T11 construct: also called Peptide No. 14
T11 peptide: TGFVKKDQLGKNEE

T12: α-synuclein peptide 16 (106-119) (human)
T12 construct: also called Peptide No. 16
T12 peptide: GAPQEGILEDMPVD

T13: α-synuclein peptide 2 (8-21) (human)
T13 construct: also called Peptide No. 2
T13 peptide: LSKAKEGVVAAAEK

T14: α-synuclein peptide 15 (99-112) (human)
T14 construct: also called Peptide No. 15
T14 peptide: QLGKNEEGAPQEGI

T15: α-synuclein peptide 6 (36-49) (human)
T15 construct: also called Peptide No. 6
T15 peptide: GVLYVGSKTKEGVV

T16: α-synuclein peptide 1 (1-14) (human)
T16 construct: also called Peptide No. 1
T16 peptide: MDVFMKGLSKAKEG

T17: α-synuclein peptide 9 (57-70) (human)
T17 construct: also called Peptide No. 9
T17 peptide: EKTKEQVTNVGGAV

T18: α-synuclein peptide 10 (64-77) (human)
T18 construct: also called Peptide No. 10
T18 peptide: TNVGGAVVTGVTAV

T19: α-synuclein peptide 17 (113-126) (human)
T19 construct: also called Peptide No. 17
T19 peptide: LEDMPVDPDNEAYE

B1: Syn-O2 (antibody, IgG1, V domains shown)
VH: EVQLVESGGGLVQPKGSLKLSCAASGFTFNTYAMHWVRQAPGKGLEWVARIRSKSSNYATYYADSVKDRFTISRDDSQSMLYLQMNNLKTEDTAMYYCVRPLKWYFDVWGTGTTVTVSS
VL: QIVLTQSPAILSASPGEKVTMTCSASSTVNYMHWYQQKSGTSPKIWIYDTSKLASGVPARFSGSGSWTSYSLTISSMEAEDAATYYCQQWNSNPPTFGAGTKLELK
notes: same VH and VL as Syn-O1, Syn-O3, Syn-O4; also called mAb Syn-O2
B2: Syn-O3 (antibody, IgG1, V domains shown)
VH: B1 VH
VL: B1 VL
notes: same VH and VL as Syn-O1, Syn-O2, Syn-O4; also called mAb Syn-O3
B3: Syn-O4 (antibody, IgG1, V domains shown)
VH: B1 VH
VL: B1 VL
notes: same VH and VL as Syn-O1, Syn-O2, Syn-O3; also called mAb Syn-O4

Target: T1, IAPP monomers
Test: dot blot
Protocol: (§1) The membranes were blocked with 5% skimmed milk in PBST (PBS containing 0.05% Tween) and incubated for 1 h at room temperature. […] The membranes were washed and incubated with either 1/20000 diluted goat anti-mouse IgG-HRP (Jackson ImmunoResearch) or 1/10000 diluted goat anti-rabbit IgG-HRP (Jackson Immunoresearch) for 1 h at room temperature. The blots were then developed with Super signal West Pico chemiluminescent substrate.
(§2) C) To test the cross reactivity of our conformational monoclonal antibodies to different fragments of α-synuclein. […] The membranes were washed before incubating with either 1/20000 diluted goat anti-mouse IgG-HRP conjugate (Jackson Immunoresearch) or 1/300000 diluted chicken anti-goat IgG-HRP conjugate (Santa Cruz Biotechnology) for 1 h at room temperature. The blots were then developed with Super signal West Pico chemiluminescent substrate.

| Binder | binding result |
| --- | --- |
| B1 | no binding (tested: 50 ng/ml antibody, 50 ng spotted) |
| B2 | no binding (tested: 50 ng/ml antibody, 50 ng spotted) |
| B3 | no binding (tested: 50 ng/ml antibody, 50 ng spotted) |

Target: T2, fibrils of NAC (61-78)
Test: dot blot
Protocol: as §1, §2

| binding result | Binder |
| --- | --- |
| no binding (tested: 50 ng spotted) | B1 |
| no binding (tested: 50 ng spotted) | B2 |
| no binding (tested: 50 ng spotted) | B3 |

Target: γ-synuclein monomers (UniProt O76070 1-127)
Test: dot blot
Protocol: as §1, §2

Sequence of γ-synuclein monomers (O76070 whole entry): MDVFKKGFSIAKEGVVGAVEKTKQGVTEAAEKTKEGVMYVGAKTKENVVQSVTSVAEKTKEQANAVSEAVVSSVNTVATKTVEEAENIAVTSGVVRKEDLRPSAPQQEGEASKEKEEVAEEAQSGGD

| binding result | Binder |
| --- | --- |
| no binding (tested: 50 ng spotted) | B1 |
| no binding (tested: 50 ng spotted) | B2 |
| no binding (tested: 50 ng spotted) | B3 |

Target: T20, A-beta monomers (UniProt P05067 672-713, limits assumed)
T20 construct: also called β-amyloid monomers
Test: dot blot
Protocol: as §1, §2

| Binder | binding result |
| --- | --- |
| B1 | no binding (tested: 50 ng/ml antibody, 50 ng spotted) |
| B2 | no binding (tested: 50 ng/ml antibody, 50 ng spotted) |
| B3 | no binding (tested: 50 ng/ml antibody, 50 ng spotted) |

Target: γ-synuclein fibrils (UniProt O76070 1-127)
Test: dot blot
Protocol: as §1, §2

Sequence of γ-synuclein fibrils (O76070 whole entry): as above

| binding result | Binder |
| --- | --- |
| no binding (tested: 50 ng spotted) | B1 |
| no binding (tested: 50 ng spotted) | B2 |
| no binding (tested: 50 ng spotted) | B3 |

Target: β-synuclein fibrils (UniProt Q16143 1-134)
Test: dot blot
Protocol: as §1, §2

Sequence of β-synuclein fibrils (Q16143 whole entry): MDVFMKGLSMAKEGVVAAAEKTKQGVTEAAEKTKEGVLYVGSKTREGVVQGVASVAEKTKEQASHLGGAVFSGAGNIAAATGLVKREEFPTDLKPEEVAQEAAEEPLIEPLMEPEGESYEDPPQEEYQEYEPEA

| binding result | Binder |
| --- | --- |
| no binding (tested: 50 ng spotted) | B1 |
| no binding (tested: 50 ng spotted) | B2 |
| no binding (tested: 50 ng spotted) | B3 |

Target: β-synuclein monomers (UniProt Q16143 1-134)
Test: dot blot
Protocol: as §1, §2

Sequence of β-synuclein monomers (Q16143 whole entry): as above

| binding result | Binder |
| --- | --- |
| no binding (tested: 50 ng spotted) | B1 |
| no binding (tested: 50 ng spotted) | B2 |
| no binding (tested: 50 ng spotted) | B3 |

Target: T21, fibrils of NAC (61-95) (human)
T21 construct: also called NAC region (61-95) (F)
Test: dot blot
Protocol: as §1, §2

| binding result | Binder |
| --- | --- |
| no binding (tested: 50 ng spotted) | B1 |
| no binding (tested: 50 ng spotted) | B2 |
| no binding (tested: 50 ng spotted) | B3 |

Target: T3, IAPP fibrils
Test: dot blot
Protocol: as §1, §2

| Binder | binding result |
| --- | --- |
| B1 | no binding (tested: 50 ng/ml antibody, 50 ng spotted) |
| B2 | no binding (tested: 50 ng/ml antibody, 50 ng spotted) |
| B3 | no binding (tested: 50 ng/ml antibody, 50 ng spotted) |

Target: T22, A-beta fibrils (UniProt P05067 672-713, limits assumed)
T22 construct: Amyloid fibrils of A-beta spotted in the dot blot; also called β-amyloid
Test: dot blot
Protocol: as §1, §2

| Binder | binding result |
| --- | --- |
| B1 | no binding (tested: 50 ng/ml antibody, 50 ng spotted) |
| B2 | no binding (tested: 50 ng/ml antibody, 50 ng spotted) |
| B3 | no binding (tested: 50 ng/ml antibody, 50 ng spotted) |

Target: T4, α-synuclein peptide 12 (78-91)
Test: pepscan ELISA
Protocol: (§3) To confirm the pepscan results using dot blot the mAbs were also tested by Pepscan using ELISA. […] The plate was washed with PBST and 50 μl of substrate (SuperSignal ELISA Femto Maximum Sensitivity Substrate, Thermo Scientific) was added and immediately read the plate using Victor X3 microtiter plate reader. After the ELISA signals were measured, the plate was also exposed onto X-ray film to develop the spots.

| Binder | binding result |
| --- | --- |
| B1 | no binding (tested: 100 ng/ml antibody, 500 ng/well peptide) |
| B2 | no binding (tested: 100 ng/ml antibody, 500 ng/well peptide) |
| B3 | no binding (tested: 100 ng/ml antibody, 500 ng/well peptide) |

Target: T5, α-synuclein peptide 18 (120-133)
Test: pepscan ELISA
Protocol: as §3

| Binder | binding result |
| --- | --- |
| B1 | no binding (tested: 100 ng/ml antibody, 500 ng/well peptide) |
| B2 | no binding (tested: 100 ng/ml antibody, 500 ng/well peptide) |
| B3 | no binding (tested: 100 ng/ml antibody, 500 ng/well peptide) |

Target: T6, α-synuclein peptide 11 (71-84)
Test: pepscan ELISA
Protocol: as §3

| Binder | binding result |
| --- | --- |
| B1 | no binding (tested: 100 ng/ml antibody, 500 ng/well peptide) |
| B2 | no binding (tested: 100 ng/ml antibody, 500 ng/well peptide) |
| B3 | no binding (tested: 100 ng/ml antibody, 500 ng/well peptide) |

Target: T7, α-synuclein peptide 8 (50-63)
Test: pepscan ELISA
Protocol: as §3

| Binder | binding result |
| --- | --- |
| B1 | no binding (tested: 100 ng/ml antibody, 500 ng/well peptide) |
| B2 | no binding (tested: 100 ng/ml antibody, 500 ng/well peptide) |
| B3 | no binding (tested: 100 ng/ml antibody, 500 ng/well peptide) |

Target: T8, α-synuclein peptide 13 (85-98)
Test: pepscan ELISA
Protocol: as §3

| Binder | binding result |
| --- | --- |
| B1 | no binding (tested: 100 ng/ml antibody, 500 ng/well peptide) |
| B2 | no binding (tested: 100 ng/ml antibody, 500 ng/well peptide) |
| B3 | no binding (tested: 100 ng/ml antibody, 500 ng/well peptide) |

Target: T9, α-synuclein peptide 7 (43-56)
Test: pepscan ELISA
Protocol: as §3

| Binder | binding result |
| --- | --- |
| B1 | no binding (tested: 100 ng/ml antibody, 500 ng/well peptide) |
| B2 | no binding (tested: 100 ng/ml antibody, 500 ng/well peptide) |
| B3 | no binding (tested: 100 ng/ml antibody, 500 ng/well peptide) |

Target: T10, α-synuclein peptide 3 (15-28)
Test: pepscan ELISA
Protocol: as §3

| Binder | binding result |
| --- | --- |
| B1 | no binding (tested: 100 ng/ml antibody, 500 ng/well peptide) |
| B2 | no binding (tested: 100 ng/ml antibody, 500 ng/well peptide) |
| B3 | no binding (tested: 100 ng/ml antibody, 500 ng/well peptide) |

Target: T11, α-synuclein peptide 14 (92-105)
Test: pepscan ELISA
Protocol: as §3

| Binder | binding result |
| --- | --- |
| B1 | no binding (tested: 100 ng/ml antibody, 500 ng/well peptide) |
| B2 | no binding (tested: 100 ng/ml antibody, 500 ng/well peptide) |
| B3 | no binding (tested: 100 ng/ml antibody, 500 ng/well peptide) |

Target: T12, α-synuclein peptide 16 (106-119)
Test: pepscan ELISA
Protocol: as §3

| Binder | binding result |
| --- | --- |
| B1 | no binding (tested: 100 ng/ml antibody, 500 ng/well peptide) |
| B2 | no binding (tested: 100 ng/ml antibody, 500 ng/well peptide) |
| B3 | no binding (tested: 100 ng/ml antibody, 500 ng/well peptide) |

Target: T13, α-synuclein peptide 2 (8-21)
Test: pepscan ELISA
Protocol: as §3

| Binder | binding result |
| --- | --- |
| B1 | no binding (tested: 100 ng/ml antibody, 500 ng/well peptide) |
| B2 | no binding (tested: 100 ng/ml antibody, 500 ng/well peptide) |
| B3 | no binding (tested: 100 ng/ml antibody, 500 ng/well peptide) |

Target: T14, α-synuclein peptide 15 (99-112)
Test: pepscan ELISA
Protocol: as §3

| Binder | binding result |
| --- | --- |
| B1 | no binding (tested: 100 ng/ml antibody, 500 ng/well peptide) |
| B2 | no binding (tested: 100 ng/ml antibody, 500 ng/well peptide) |
| B3 | no binding (tested: 100 ng/ml antibody, 500 ng/well peptide) |

Target: T15, α-synuclein peptide 6 (36-49)
Test: pepscan ELISA
Protocol: as §3

| Binder | binding result |
| --- | --- |
| B1 | no binding (tested: 100 ng/ml antibody, 500 ng/well peptide) |
| B2 | no binding (tested: 100 ng/ml antibody, 500 ng/well peptide) |
| B3 | no binding (tested: 100 ng/ml antibody, 500 ng/well peptide) |

Target: T16, α-synuclein peptide 1 (1-14)
Test: pepscan ELISA
Protocol: as §3

| Binder | binding result |
| --- | --- |
| B1 | no binding (tested: 100 ng/ml antibody, 500 ng/well peptide) |
| B2 | no binding (tested: 100 ng/ml antibody, 500 ng/well peptide) |
| B3 | no binding (tested: 100 ng/ml antibody, 500 ng/well peptide) |

Target: T17, α-synuclein peptide 9 (57-70)
Test: pepscan ELISA
Protocol: as §3

| Binder | binding result |
| --- | --- |
| B1 | no binding (tested: 100 ng/ml antibody, 500 ng/well peptide) |
| B2 | no binding (tested: 100 ng/ml antibody, 500 ng/well peptide) |
| B3 | no binding (tested: 100 ng/ml antibody, 500 ng/well peptide) |

Target: T18, α-synuclein peptide 10 (64-77)
Test: pepscan ELISA
Protocol: as §3

| Binder | binding result |
| --- | --- |
| B1 | no binding (tested: 100 ng/ml antibody, 500 ng/well peptide) |
| B2 | no binding (tested: 100 ng/ml antibody, 500 ng/well peptide) |
| B3 | no binding (tested: 100 ng/ml antibody, 500 ng/well peptide) |

Target: T19, α-synuclein peptide 17 (113-126)
Test: pepscan ELISA
Protocol: as §3

| Binder | binding result |
| --- | --- |
| B1 | no binding (tested: 100 ng/ml antibody, 500 ng/well peptide) |
| B2 | no binding (tested: 100 ng/ml antibody, 500 ng/well peptide) |
| B3 | no binding (tested: 100 ng/ml antibody, 500 ng/well peptide) |
